According to patent US20110028538:

System: TR4 (Nr2c2), endogenous (Mus musculus)
Conditions: ChIP with anti-TR4 in RAW264.7 cells versus IgG

CD36 promoter region (ChIP amplicon)
binding signal: > 4 fold
